The text below walks through data of patent publication US20230203538A1.

Assay [1] concerns the target CD5 on murine T cells (mouse) (UniProt P13379). The assay is described as follows: cell-based or functional assay.
Assay [2] addresses CD5 on human ACH2 immortalized T cells (human) (UniProt P06127). The assay is described as follows: cell-based or functional assay.
Sequence of UniProt P06127 (P06127 25-495 limits assumed): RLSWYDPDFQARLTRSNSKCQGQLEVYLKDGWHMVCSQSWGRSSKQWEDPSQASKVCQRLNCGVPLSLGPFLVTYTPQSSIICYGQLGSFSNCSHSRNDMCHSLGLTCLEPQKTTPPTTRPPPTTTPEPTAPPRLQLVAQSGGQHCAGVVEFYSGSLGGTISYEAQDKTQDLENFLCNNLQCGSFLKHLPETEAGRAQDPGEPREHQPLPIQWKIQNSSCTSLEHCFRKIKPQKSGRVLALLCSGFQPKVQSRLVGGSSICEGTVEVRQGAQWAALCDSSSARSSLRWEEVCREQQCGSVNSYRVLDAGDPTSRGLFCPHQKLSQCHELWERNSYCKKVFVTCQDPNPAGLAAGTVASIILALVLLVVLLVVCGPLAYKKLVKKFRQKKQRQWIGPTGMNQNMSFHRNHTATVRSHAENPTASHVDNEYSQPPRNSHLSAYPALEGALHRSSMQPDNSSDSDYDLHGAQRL

Sequence of UniProt P13379 (P13379 24-494 limits assumed): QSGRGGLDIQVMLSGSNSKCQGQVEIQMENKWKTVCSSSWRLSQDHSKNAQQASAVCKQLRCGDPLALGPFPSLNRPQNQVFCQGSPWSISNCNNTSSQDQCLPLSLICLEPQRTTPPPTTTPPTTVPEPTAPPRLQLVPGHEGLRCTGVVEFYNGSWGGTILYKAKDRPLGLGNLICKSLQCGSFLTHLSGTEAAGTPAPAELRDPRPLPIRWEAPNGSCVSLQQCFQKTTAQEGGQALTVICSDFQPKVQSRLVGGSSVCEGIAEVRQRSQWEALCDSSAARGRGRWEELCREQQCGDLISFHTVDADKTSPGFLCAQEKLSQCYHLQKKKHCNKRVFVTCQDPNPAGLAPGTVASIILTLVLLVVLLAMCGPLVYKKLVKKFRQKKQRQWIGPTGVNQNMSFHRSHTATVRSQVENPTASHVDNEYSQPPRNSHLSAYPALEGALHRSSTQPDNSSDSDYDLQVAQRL

Take “control isotype matched IgG conjugated to LNP-mRNA (antibody)”: the percent of murine T cells that received mRNA from IgG/LNP-FAPCAR (flow cytometry) in assay [1] stood at 7%.
For “mouse anti-human CD5, clone UCHT2 (BioLegend), conjugated to LNP-mRNA (antibody)”, the percent gene transfer (GFP) in human ACH2 T cells 24 hours after mixing with CD5/LNP-GFP in assay [2] was in the range of 89 to 93%.
In assay [1], “purified rat anti-mouse CD5, clone 53-7.3 (BioLegend), conjugated to LNP-mRNA (antibody)” registered a percent of murine T cells expressing FAPCAR 48 hours after incubation with CD5/LNP-FAPCAR (flow cytometry) of 83% and a percent of murine T cells expressing GFP 48 hours after incubation with CD5/LNP-GFP (flow cytometry) of 78%.
